Source: patent US20200181195A1 (NEC, published 2020)

B1: FLGLSNIKF (Seq. ID No. 1) (peptide)
peptide: FLGLSNIKF
notes: Only the start position in MUC1 is printed; The end of the range follows from the length of 9 residues
B2: AASRYNLTI (Seq. ID No. 5) (peptide)
peptide: AASRYNLTI
notes: as for B1
B3: STGVSFFFL (Seq. ID No. 10) (peptide)
peptide: STGVSFFFL
notes: as for B1
B4: GQDVTSVPV (Seq. ID No. 11) (peptide)
peptide: GQDVTSVPV
notes: as for B1
B5: FSAQSGAGV (Seq. ID No. 12) (peptide)
peptide: FSAQSGAGV
notes: as for B1
B6: SVPVTRPAL (Seq. ID No. 2) (peptide)
peptide: SVPVTRPAL
notes: as for B1
B7: GVPGWGIAL (Seq. ID No. 3) (peptide)
peptide: GVPGWGIAL
notes: as for B1
B8: AFREGTINV (Seq. ID No. 4) (peptide)
peptide: AFREGTINV
notes: as for B1
B9: LQRDISEMF (Seq. ID No. 6) (peptide)
peptide: LQRDISEMF
notes: as for B1
B10: HHSDTPTTL (Seq. ID No. 7) (peptide)
peptide: HHSDTPTTL
notes: as for B1
B11: SFFFLSFHI (Seq. ID No. 8) (peptide)
peptide: SFFFLSFHI
notes: as for B1
B12: TLAFREGTI (Seq. ID No. 9) (peptide)
peptide: TLAFREGTI
notes: as for B1

Target: T1, HLA-A*02:01 molecule (HLA-A*02:01 gene product) (human)
T1 construct: MHC class I on T2 cells with added purified b2m
Test: flow cytometry, T2 cells + purified b2m, peptide dilution series, BB7.2 staining
Method: (§1) Thereafter, the amount of fluorescence per cell was measured using a flow cytometer, and a dissociation constant Kd value was calculated using a method that was reported in a paper (Udaka et al., Immunogenetics, 51, 816-828, 2000) by the inventors of the present invention.

| Binder | Data of binding experiment (log Kd) |
| --- | --- |
| B1 | -5.39 log Kd |
| B2 | -4.81 log Kd |
| B3 | -5.12 log Kd |
| B4 | -6.44 log Kd |
| B5 | -4.74 log Kd |
| B6 | -3.9 log Kd |
| B7 | -4.55 log Kd |

Target: T2, HLA-A*24:02 molecule (HLA-A*24:02 gene product) (human)
T2 construct: MHC class I on acid-stripped C1R-A24 cells; The endogenous peptide and b2m were removed, then purified b2m was added
Test: flow cytometry, acid-stripped C1R-A24 cells + purified b2m, peptide dilution series, 17A12 staining
Method: First, C1R-A24 cells were exposed to acidic conditions at a pH of 3.3 for 30 seconds, and thus an endogenous peptide that originally binds to the HLA-A*24:02 molecule, and a light chain β2m, which is associated with HLA class-I molecules in common, were dissociated and removed. After neutralization, a purified β2m was added to C1R-A24 cells, and the obtained product was added to a series of dilutions of the peptide and incubated on ice for 4 hours. Staining was carried out using a fluorescently labeled monoclonal antibody 17A12, which recognizes association (MHC-pep) of the three members, that is, a HLA-A*24:02 molecule, a peptide, and β2m, which had reassociated during the incubation.
Thereafter, the MHC-pep count per C1R-A24 cell (proportional to the intensity of fluorescence of the above-mentioned fluorescent antibody) was quantitatively measured using a fluorescence-activated cell sorter FACScan (Becton-Dickinson). A binding-dissociation constant Kd value between the HLA-A*24:02 molecule and the peptide was calculated from the average intensity of fluorescence per cell using a method that was reported in a paper (Udaka et al., Immunogenetics, 51, 816-828, 2000) by the inventors of the present invention.

| Binder | Data of binding experiment (log Kd) |
| --- | --- |
| B1 | -7.07 log Kd |
| B8 | -5.83 log Kd |
| B2 | -6.15 log Kd |
| B9 | -6.65 log Kd |
| B10 | -5.87 log Kd |
| B11 | -7.07 log Kd |
| B12 | -5.97 log Kd |
| B3 | -5.17 log Kd |
| B6 | -7.24 log Kd |
| B7 | -5.93 log Kd |

Target: T3, HLA-A*02:06 molecule (HLA-A*02:06 gene product) (human)
T3 construct: whole, on cells; MHC class I on RA2.6 cells (mouse RMAS transfected with HLA-A*02:06); The light chain is not described
Test: flow cytometry, RA2.6 cells (RMAS + HLA-A*02:06), peptide dilution series, BB7.2 staining
Method: Thereafter, the cells were cultured at 35° C. for 4 hours. […] A fluorescently labeled monoclonal antibody BB7.2, which specifically recognizes a peptide-binding HLA-A*02:06 molecule, was added thereto, incubation was carried out on ice for 20 minutes, and thus the cells were stained.
as §1

| Binder | Data of binding experiment (log Kd) |
| --- | --- |
| B1 | -4.39 log Kd |
| B2 | -3.82 log Kd |
| B9 | -4.26 log Kd |
| B11 | -3.98 log Kd |
| B12 | -3.09 log Kd |
| B3 | -5.21 log Kd |
| B4 | -6.35 log Kd |
| B5 | -5.66 log Kd |
| B6 | -5.63 log Kd |
| B7 | -5.76 log Kd |
